Assay results: paper PMC7337384

Molecular target: SARS-CoV-2 S-protein receptor-binding domain fused to the Fc domain of human IgG1 (SARS-CoV-2) (UniProt P0DTC2)
Test: SPR

Substance: soluble monomeric R. macrotis ACE2 (domain or fragment)
- Kd: 4.6 µM
